Results as given in patent publication US20050096288.

Target: VLDL (apolipoprotein B-100 containing) (Homo sapiens) (UniProt P04114)
Assay: EMSA
Details: LDL has greater affinity

Chain of UniProt P04114 (P04114 28-4563): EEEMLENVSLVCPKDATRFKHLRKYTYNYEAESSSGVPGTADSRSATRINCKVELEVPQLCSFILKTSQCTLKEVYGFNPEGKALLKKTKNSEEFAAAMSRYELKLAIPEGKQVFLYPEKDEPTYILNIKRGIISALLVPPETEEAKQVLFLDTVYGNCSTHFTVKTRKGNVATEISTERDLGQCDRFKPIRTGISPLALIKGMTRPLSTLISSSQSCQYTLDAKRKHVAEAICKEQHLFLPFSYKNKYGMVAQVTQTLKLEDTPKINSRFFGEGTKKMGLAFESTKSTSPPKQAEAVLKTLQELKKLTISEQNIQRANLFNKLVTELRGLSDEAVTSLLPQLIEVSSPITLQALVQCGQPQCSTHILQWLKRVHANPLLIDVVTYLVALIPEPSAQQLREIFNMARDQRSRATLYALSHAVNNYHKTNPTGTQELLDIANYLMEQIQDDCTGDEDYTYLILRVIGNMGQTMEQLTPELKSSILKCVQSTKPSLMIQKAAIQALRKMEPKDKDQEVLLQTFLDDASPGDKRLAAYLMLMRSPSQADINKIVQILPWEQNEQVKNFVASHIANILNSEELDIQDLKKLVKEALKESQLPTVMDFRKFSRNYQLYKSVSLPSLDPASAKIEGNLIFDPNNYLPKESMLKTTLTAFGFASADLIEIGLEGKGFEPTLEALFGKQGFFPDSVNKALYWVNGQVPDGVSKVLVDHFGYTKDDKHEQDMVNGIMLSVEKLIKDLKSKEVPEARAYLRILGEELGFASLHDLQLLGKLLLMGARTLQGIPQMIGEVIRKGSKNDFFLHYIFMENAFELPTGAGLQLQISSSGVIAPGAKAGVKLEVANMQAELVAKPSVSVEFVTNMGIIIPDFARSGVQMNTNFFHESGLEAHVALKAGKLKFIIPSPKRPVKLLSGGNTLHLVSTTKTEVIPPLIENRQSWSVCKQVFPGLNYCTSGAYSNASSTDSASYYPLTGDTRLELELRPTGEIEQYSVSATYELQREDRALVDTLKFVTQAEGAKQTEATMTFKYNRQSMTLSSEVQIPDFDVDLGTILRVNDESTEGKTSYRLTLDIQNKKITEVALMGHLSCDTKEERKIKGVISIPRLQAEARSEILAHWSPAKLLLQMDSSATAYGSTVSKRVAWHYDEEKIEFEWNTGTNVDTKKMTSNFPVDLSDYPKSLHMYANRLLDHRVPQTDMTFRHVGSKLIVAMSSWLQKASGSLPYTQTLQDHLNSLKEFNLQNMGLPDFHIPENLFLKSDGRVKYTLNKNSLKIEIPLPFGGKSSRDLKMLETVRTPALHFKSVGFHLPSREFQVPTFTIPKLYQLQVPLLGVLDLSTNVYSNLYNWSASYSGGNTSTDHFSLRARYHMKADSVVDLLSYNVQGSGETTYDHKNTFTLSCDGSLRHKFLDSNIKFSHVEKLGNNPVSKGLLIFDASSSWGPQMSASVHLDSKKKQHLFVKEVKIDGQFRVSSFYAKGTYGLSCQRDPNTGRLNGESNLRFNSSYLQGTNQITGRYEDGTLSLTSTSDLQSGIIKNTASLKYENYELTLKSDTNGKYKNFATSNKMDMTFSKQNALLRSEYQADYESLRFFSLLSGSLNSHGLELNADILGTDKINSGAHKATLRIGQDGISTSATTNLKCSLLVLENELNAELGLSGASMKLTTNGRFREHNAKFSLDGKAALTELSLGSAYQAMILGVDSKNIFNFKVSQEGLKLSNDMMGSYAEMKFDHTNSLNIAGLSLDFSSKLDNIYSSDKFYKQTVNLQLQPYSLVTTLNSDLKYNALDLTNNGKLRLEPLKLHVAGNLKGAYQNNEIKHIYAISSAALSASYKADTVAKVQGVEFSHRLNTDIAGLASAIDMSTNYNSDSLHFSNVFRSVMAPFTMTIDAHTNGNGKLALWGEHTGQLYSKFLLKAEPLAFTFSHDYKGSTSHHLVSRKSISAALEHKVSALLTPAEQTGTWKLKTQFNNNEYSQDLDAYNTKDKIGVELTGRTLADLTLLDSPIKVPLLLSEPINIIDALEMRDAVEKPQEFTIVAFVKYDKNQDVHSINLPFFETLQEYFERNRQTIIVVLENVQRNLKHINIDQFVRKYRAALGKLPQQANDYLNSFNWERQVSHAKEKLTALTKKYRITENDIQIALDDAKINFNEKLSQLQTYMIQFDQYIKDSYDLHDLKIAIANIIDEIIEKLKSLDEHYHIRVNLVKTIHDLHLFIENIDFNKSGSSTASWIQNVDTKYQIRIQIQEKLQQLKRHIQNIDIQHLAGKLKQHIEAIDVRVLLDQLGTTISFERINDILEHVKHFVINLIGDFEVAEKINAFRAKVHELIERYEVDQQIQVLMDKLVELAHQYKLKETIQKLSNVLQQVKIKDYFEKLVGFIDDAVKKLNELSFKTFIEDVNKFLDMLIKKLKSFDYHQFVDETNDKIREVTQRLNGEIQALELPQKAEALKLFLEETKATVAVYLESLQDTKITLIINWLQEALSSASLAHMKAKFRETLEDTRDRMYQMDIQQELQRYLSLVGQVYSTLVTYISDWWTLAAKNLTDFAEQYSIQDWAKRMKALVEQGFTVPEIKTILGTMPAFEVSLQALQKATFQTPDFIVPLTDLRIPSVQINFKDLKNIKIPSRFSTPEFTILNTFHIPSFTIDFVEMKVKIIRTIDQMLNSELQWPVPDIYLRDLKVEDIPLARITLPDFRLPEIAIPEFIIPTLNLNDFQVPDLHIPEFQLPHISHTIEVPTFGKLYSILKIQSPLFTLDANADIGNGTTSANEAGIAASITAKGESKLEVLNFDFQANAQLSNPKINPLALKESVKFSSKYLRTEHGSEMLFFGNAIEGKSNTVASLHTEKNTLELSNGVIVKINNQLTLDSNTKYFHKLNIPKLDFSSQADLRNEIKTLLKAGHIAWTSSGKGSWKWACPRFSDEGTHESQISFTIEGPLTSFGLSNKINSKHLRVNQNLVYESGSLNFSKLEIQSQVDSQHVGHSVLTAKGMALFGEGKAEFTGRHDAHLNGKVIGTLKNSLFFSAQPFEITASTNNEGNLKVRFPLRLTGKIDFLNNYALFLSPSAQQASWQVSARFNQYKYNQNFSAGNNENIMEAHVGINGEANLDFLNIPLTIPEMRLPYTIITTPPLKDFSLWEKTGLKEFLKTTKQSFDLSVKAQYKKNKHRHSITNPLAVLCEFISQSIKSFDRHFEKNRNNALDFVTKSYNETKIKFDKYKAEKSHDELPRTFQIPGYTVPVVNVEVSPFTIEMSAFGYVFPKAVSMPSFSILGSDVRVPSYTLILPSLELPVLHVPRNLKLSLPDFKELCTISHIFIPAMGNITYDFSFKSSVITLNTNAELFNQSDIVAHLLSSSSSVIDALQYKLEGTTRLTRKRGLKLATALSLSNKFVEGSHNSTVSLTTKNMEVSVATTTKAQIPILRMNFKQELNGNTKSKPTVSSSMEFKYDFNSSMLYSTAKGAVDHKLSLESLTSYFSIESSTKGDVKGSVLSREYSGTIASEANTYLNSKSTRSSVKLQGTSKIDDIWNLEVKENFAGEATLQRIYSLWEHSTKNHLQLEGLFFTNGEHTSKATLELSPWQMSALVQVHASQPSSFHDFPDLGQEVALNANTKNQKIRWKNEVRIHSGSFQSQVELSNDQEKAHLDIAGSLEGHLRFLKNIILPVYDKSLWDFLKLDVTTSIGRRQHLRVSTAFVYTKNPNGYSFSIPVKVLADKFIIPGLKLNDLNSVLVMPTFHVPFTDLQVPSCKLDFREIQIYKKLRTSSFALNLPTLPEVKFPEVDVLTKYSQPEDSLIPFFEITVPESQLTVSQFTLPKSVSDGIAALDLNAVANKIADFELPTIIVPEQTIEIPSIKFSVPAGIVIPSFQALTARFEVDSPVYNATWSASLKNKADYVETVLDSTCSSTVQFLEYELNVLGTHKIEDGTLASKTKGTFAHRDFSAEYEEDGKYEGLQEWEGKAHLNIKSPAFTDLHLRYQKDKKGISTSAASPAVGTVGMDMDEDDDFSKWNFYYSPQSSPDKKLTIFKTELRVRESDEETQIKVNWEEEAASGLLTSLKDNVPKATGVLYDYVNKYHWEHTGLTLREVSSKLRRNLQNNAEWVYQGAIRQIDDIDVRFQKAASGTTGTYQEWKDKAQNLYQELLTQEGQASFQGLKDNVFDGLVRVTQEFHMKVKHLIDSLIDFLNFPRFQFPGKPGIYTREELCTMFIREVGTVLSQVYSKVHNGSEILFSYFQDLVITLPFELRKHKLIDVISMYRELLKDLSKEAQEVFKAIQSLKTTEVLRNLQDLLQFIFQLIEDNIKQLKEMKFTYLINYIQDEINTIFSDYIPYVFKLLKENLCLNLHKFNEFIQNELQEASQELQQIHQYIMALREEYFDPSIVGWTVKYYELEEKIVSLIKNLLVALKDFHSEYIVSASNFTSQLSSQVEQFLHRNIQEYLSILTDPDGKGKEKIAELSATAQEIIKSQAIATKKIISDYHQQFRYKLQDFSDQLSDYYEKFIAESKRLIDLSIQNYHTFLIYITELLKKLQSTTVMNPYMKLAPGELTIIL

Row | Substance | binding signal (% of total labeled DNA)
1 | E/C oligonucleotide (E-box CANNTG and CCAAT) | < 1
2 | SRE oligonucleotide | < 1
